The text below walks through data of US20220332804A1 (CSL INNOVATION, published 2022).

A word on the Kd: it is the free concentration of one partner at which half of the binding sites on the other are occupied at equilibrium, for simple one-to-one binding. High values mean weaker binding, low ones tighter binding.

Common to all, as to test: SPR, antibody captured, C2 as analyte;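 also: biacore SPR at 37 °C, anti-C2 mAbs captured via goat anti-human IgG on CM5 chips, double-referenced sensorgrams fit to a 1:1 kinetic or steady-state model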
Background: SPR reads the build-up and loss of mass on a sensor chip optically.

Experiment [1] concerns the target T1, human C2 S720A (human, UniProt P06681 21-752).
T1 sequence: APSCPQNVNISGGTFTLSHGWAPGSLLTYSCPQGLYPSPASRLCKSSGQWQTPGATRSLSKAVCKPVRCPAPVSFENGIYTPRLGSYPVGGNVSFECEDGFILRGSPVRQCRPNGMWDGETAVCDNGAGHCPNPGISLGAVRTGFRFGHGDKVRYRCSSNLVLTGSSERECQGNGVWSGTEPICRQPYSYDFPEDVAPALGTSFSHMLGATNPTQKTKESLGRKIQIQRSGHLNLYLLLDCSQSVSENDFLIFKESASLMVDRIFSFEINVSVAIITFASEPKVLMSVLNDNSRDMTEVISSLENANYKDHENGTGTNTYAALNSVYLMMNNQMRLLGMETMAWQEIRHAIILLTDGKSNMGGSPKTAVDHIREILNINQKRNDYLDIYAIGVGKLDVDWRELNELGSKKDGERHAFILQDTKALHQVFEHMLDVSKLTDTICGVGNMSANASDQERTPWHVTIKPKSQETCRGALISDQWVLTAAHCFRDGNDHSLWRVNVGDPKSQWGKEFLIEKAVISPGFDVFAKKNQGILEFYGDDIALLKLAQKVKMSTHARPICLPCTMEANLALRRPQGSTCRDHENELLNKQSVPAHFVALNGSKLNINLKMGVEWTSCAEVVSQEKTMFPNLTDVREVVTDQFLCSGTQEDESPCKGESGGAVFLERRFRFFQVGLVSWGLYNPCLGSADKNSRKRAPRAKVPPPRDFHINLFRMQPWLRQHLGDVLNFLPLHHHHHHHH

Experiment [2] deals with T2, human C2 P723A (human, UniProt P06681 21-752).
T2 sequence: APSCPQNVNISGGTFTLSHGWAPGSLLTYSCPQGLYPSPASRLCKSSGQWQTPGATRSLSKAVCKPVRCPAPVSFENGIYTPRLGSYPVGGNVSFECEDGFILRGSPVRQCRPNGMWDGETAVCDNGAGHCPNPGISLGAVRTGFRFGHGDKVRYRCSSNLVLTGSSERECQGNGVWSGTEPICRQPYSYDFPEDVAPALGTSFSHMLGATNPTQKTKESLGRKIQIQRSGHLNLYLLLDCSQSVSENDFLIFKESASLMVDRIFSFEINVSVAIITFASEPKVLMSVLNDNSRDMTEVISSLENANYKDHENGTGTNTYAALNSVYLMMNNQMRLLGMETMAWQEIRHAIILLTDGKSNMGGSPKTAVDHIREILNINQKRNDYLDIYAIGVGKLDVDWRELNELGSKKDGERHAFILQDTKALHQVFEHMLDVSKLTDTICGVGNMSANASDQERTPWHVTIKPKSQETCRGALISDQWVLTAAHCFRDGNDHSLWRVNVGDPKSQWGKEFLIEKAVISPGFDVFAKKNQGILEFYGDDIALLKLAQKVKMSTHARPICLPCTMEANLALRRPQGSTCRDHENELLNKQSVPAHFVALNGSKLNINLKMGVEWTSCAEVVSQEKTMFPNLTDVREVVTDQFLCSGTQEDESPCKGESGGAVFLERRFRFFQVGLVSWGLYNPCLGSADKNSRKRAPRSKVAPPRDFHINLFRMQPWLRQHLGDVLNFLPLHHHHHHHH

In experiment [3] the target is T3, human C2 A326S (human, UniProt P06681 21-752).
T3 sequence: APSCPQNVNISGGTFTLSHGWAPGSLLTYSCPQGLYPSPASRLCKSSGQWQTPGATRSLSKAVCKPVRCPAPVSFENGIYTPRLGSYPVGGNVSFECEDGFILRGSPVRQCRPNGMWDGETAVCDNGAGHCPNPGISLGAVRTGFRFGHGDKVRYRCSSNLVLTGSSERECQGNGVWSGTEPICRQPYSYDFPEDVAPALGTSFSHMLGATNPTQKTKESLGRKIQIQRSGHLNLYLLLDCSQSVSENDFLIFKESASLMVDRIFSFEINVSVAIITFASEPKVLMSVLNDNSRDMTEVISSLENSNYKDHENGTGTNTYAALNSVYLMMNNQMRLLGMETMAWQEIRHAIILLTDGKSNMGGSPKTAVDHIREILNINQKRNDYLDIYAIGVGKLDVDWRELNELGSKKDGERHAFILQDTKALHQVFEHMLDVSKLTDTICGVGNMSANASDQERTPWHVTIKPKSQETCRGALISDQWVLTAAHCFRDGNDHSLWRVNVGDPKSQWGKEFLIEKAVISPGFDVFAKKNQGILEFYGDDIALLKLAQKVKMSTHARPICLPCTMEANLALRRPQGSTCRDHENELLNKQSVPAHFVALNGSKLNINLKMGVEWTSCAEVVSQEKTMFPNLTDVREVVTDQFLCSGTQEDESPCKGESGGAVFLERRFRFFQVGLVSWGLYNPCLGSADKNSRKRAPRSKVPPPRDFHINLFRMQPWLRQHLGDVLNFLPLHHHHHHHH

For experiment [4], the target named is T4, human C2 A436S (human, UniProt P06681 21-752).
T4 sequence: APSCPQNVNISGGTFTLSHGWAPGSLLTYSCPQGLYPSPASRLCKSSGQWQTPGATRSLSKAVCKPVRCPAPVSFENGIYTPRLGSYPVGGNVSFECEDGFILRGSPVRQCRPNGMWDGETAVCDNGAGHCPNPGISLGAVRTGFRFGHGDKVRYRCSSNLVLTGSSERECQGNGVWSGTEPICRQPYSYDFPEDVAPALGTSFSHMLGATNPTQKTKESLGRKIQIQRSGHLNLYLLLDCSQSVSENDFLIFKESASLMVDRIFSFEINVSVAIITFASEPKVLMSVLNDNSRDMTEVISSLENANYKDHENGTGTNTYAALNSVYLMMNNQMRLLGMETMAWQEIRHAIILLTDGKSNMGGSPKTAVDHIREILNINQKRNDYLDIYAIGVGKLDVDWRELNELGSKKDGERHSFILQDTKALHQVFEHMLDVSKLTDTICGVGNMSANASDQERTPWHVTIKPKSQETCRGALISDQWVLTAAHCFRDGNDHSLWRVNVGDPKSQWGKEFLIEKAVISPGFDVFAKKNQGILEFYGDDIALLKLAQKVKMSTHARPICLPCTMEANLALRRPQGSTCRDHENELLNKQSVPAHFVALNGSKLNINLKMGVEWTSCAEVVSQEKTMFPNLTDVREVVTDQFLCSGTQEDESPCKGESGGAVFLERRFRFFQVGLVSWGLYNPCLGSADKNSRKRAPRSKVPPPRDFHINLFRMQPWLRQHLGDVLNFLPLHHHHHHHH

B1: RF16-226 (antibody, human IgG4 S228P, lambda)
heavy: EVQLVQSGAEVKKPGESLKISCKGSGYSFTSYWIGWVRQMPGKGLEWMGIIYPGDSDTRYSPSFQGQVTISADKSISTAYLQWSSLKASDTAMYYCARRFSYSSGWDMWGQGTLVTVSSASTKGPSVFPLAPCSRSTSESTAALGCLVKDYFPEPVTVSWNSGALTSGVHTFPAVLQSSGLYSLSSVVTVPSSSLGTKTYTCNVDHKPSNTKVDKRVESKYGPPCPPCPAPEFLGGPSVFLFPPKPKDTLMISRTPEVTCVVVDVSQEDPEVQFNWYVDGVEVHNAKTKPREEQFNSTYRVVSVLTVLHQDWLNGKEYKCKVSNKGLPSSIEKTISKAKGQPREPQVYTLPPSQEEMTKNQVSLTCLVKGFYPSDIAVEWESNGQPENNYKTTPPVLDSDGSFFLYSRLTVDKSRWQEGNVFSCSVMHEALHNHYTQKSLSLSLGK
light: SYELTQPPSVSVSPGQTARITCSGDALTSKYVAWYQQKSGLAPLLVIYEDTRRPSGIPAKFSGSSSGSVATLTISGAHGDDEADYYCYSTDASGHQRVFGGGTKLTVLSQPKAAPSVTLFPPSSEELQANKATLVCLISDFYPGAVTVAWKADGSPVKAGVETTKPSKQSNNKYAASSYLSLTPEQWKSHRSYSCQVTHEGSTVEKTVAPTECS
notes: pH-dependent anti-C2 antibody from a phage display library; also called WT
Turning to B1, the Kd is 14.6 nM in experiment [1], 122 nM in experiment [2], 13.2 nM in experiment [3] and 6.2 nM in experiment [4].
